Source: article PMC3145628, “A Rice Plastidial Nucleotide Sugar Epimerase Is Involved in Galactolipid Biosynthesis and Improves Photosynthetic Efficiency” (PLoS Genetics, 2011)

Substrate: O=c1ccn([C@@H]2O[C@H](COP(=O)(O)OP(=O)(O)O[C@H]3O[C@H](CO)[C@H](O)[C@H](O)[C@H]3O)[C@@H](O)[C@H]2O)c(=O)[nH]1
Test: purified protein
Format: biochemical, Oryza sativa
Conditions: 30°C, 100 mM glycine buffer pH 8.7, 1 mM NAD+, UDP-Gal varied 0.4-3.2 mM

B1: PHD1 (PHOTO… …1) (Oryza sativa Japonica Group) (protein)
chain: DDTGVKMAGSDIVGKNDLLIVGPGVLGRLVAEKWQEEHPGCKVFGQTASTDHHNELSNIGIIPSLKGSTFPQKVPYVIFCAPPSRSDDYPGDVRVAASNWTGEGSFVFTSSTALYDCSDNELCNEDCPSVPIGRSPRTDVLLKAENVVLEAGGCVLRLAGLYKIDRGAHFFWLRKGTLDTRPDHIINQIHYEDAASLAIAIMKKGHRGRIFLGCDNKPLSRQEIMDSVNRSGKFDTKFQGFTGTDGPLGKKMENSRTRSEIGWEPKYPSFTEFLGLDS
notes: mature protein without putative N-terminal 62-aa chloroplast transit peptide (full length 340 aa); expressed in E. coli; pGEX-4T-1 (GST) in BL21(DE3), glutathione Sepharose purified (described for antibody production)
Protein B1 has a Km of 840 µM.
